Assay [1] deals with F-actin of rabbit psoas ghost muscle fibers (rabbit (endogenous in psoas muscle fibers)) (UniProt P68135). Briefly: reconstitution of ghost muscle fibers, washing, SDS-PAGE densitometry; single rabbit psoas ghost fibers (F-actin held in the fiber) incubated with troponin, tropomyosin and S1 at 1.0–2.5 mg/mL in 50 mM KCl, 3 mM MgCl2, 1 mM DTT, 6.7 mM K,Na–phosphate pH 7.0; unbound protein washed off; 5–10 fibers on SDS-PAGE, bands quantified with calibration curves; average molar ratios to actin.

For assay [2], the target named is AEDANS–S1 (myosin subfragment-1 labeled with 1,5-IAEDANS at Cys707). Briefly: polarized fluorescence of AEDANS-S1 in ghost fibers. As to conditions: read off a plot.
Where [3] appears, read: scale: mol actin per mol tropomyosin.
[4] abbreviates: S1 (no nucleotide), Actin + Tpm + Tn, - Ca2+, parent: est. 0.26.
Setting [5] is: S1 + ADP, Actin + Tpm + Tn, + Ca2+, parent: est. 0.17.
The mark [6] stands for this setting: S1 + ADP, Actin + Tpm + Tn, - Ca2+, parent: est. 0.27.
Setting [7] is: S1 + ATP, Actin + Tpm + Tn, - Ca2+, parent: est. 0.46.
[8] abbreviates: S1 + Tpm, no troponin, no nucleotide, parent: est. 0.16.
Setting [9] is: S1 (no nucleotide), Actin + Tpm + Tn, + Ca2+, parent: est. 0.16.
Where [10] appears, read: S1 (no nucleotide), Actin + Tpm + Tn, - Ca2+, parent: est. 0.14.
The mark [11] stands for this setting: S1 + ADP, Actin + Tpm + Tn, + Ca2+, parent: est. 0.16.
Setting [12] is: S1 + ADP, Actin + Tpm + Tn, - Ca2+, parent: est. 0.18.
Where [13] appears, read: S1 + ATP, Actin + Tpm + Tn, + Ca2+, parent: est. 0.46.
Where [14] appears, read: S1 + ATP, Actin + Tpm + Tn, - Ca2+, parent: est. 0.36.

Chain of wild-type α-tropomyosin (Tpm1.1) with N-terminal Met–Ala–Ser extension (natural protein) (P04692 whole entry): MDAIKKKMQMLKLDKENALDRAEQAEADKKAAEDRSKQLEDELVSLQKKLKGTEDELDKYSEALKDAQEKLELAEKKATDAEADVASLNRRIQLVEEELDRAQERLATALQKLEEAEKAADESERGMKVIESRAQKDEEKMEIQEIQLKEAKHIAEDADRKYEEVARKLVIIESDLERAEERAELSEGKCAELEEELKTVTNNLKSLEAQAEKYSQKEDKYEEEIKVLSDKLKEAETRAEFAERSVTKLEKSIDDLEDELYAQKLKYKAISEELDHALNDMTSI
Chain of myosin subfragment-1 (S1), lacking regulatory light chains (domain or fragment) (Q28641 whole entry, the tested form may be a part): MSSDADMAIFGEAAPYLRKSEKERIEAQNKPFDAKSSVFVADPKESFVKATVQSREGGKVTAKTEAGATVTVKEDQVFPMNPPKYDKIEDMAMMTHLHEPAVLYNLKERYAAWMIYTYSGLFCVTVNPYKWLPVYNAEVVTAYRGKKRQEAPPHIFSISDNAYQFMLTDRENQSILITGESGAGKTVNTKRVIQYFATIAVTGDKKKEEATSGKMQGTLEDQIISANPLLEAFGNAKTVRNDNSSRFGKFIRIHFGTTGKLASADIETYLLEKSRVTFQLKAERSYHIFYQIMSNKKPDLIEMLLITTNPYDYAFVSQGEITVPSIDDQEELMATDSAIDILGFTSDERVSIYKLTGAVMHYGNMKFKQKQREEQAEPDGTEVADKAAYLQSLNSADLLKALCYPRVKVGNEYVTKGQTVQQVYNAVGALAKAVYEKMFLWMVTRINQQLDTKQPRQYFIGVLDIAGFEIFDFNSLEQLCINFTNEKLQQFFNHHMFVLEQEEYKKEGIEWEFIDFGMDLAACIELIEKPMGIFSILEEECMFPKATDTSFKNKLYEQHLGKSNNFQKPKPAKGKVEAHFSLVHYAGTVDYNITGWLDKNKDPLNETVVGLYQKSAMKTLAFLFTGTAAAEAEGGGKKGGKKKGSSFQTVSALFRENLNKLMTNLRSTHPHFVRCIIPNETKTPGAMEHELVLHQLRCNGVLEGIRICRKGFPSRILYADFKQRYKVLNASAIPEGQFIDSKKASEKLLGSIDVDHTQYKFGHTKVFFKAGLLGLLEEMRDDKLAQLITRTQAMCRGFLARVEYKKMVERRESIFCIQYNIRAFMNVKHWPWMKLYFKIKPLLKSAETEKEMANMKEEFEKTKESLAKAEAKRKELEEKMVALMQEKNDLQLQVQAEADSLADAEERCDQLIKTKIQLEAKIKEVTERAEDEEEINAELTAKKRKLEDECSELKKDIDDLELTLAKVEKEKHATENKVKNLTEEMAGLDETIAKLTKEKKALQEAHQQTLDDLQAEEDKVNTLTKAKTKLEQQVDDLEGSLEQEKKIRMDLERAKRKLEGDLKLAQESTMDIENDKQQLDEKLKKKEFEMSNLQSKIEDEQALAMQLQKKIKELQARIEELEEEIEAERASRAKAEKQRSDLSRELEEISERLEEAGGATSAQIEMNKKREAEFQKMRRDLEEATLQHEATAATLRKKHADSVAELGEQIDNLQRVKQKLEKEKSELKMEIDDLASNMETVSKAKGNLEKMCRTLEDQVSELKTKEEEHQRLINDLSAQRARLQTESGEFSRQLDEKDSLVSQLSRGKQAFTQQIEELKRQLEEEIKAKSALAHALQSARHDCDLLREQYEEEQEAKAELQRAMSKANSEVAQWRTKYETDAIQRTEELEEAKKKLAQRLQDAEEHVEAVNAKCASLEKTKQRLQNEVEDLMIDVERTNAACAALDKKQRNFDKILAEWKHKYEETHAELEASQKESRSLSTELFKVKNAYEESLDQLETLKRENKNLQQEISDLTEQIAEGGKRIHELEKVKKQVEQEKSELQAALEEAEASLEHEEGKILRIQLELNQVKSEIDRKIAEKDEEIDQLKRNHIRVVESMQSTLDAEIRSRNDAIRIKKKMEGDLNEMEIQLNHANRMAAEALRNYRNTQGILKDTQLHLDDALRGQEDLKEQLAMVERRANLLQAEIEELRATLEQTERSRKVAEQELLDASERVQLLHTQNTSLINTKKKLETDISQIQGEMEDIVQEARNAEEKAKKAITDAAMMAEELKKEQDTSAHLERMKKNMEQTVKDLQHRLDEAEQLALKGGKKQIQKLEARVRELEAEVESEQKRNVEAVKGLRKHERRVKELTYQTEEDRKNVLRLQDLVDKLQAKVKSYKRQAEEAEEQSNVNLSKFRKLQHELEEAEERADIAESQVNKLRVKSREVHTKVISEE
Chain of troponin (rabbit skeletal muscle troponin complex) (P02643 whole entry, looked up): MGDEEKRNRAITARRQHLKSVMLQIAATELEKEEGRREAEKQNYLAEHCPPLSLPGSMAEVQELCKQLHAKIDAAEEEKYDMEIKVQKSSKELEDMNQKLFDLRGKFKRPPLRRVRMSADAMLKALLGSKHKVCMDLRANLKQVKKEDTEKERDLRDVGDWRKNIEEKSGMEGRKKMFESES
Chain of troponin (rabbit skeletal muscle troponin complex) (P02586 whole entry, looked up): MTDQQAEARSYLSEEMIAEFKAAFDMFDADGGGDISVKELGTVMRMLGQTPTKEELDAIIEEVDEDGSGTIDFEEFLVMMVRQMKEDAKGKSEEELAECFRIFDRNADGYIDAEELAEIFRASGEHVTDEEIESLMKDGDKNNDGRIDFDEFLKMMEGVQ
Chain of wild-type β-tropomyosin (human TPM2) with N-terminal Met–Ala–Ser extension (natural protein) (P07951 whole entry): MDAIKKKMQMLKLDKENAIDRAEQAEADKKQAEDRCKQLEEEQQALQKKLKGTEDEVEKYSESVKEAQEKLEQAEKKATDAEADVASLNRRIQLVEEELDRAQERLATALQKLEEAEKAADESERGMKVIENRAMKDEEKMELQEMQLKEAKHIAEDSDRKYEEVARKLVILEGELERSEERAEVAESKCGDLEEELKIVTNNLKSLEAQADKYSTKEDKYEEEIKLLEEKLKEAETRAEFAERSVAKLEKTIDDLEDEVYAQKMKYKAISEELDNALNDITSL
Chain of wild-type γ-tropomyosin (Tpm3.12, human TPM3) with N-terminal Met–Ala–Ser extension (natural protein) (Q5KR47 whole entry): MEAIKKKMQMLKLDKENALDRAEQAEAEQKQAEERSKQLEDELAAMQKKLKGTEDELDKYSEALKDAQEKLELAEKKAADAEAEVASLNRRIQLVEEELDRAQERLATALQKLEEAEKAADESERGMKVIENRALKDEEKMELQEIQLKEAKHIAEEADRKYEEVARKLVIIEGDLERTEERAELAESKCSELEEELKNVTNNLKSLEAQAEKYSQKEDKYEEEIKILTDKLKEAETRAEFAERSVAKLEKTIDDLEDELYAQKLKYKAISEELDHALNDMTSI

“α-tropomyosin (rat TPM1) K168E with N-terminal Met–Ala–Ser extension (natural protein)”: the stoichiometry N in assay [1] (setting [3]) came out at 6.9.

Turning to “wild-type γ-tropomyosin (Tpm3.12, human TPM3) with N-terminal Met–Ala–Ser extension R90P”, the other: N (relative number of disordered fluorophores) in assay [2] (S1 (no nucleotide), Actin + Tpm + Tn, + Ca2+, parent: est. 0.15) turned out to be 0.2 rel. units; in assay [2] (setting [4]) it was 0.17 rel. units; in assay [2] (setting [5]), 0.17 rel. units; in assay [2] (setting [6]) it was 0.16 rel. units; in assay [2] (S1 + ATP, Actin + Tpm + Tn, + Ca2+, parent: est. 0.32) it was 0.095 rel. units; in assay [2] (setting [7]), 0.1 rel. units. The other: N (relative number of disordered fluorophores) in assay [2] (setting [8]) amounted to 0.15 rel. units.

Regarding “myosin subfragment-1 (S1), lacking regulatory light chains (domain or fragment)”, the stoichiometry N in assay [1] (scale: mol actin per mol S1) turned out to be 4.1.

In the case of “β-tropomyosin (human TPM2) R91G with N-terminal Met–Ala–Ser extension (natural protein)”, the stoichiometry N in assay [1] (setting [3]) stood at 6.9.

On to “troponin (rabbit skeletal muscle troponin complex) (from UniProt P02586 1-160; P02643 1-182)”, for which the stoichiometry N in assay [1] (scale: mol actin per mol troponin) turned out to be 7.5.

As for “γ-tropomyosin (Tpm3.12, human TPM3) R90P with N-terminal Met–Ala–Ser extension (natural protein)”, the stoichiometry N in assay [1] (setting [3]) stood at 6.9.

Regarding “wild-type α-tropomyosin (Tpm1.1) with N-terminal Met–Ala–Ser extension (natural protein)”, in assay [1] (setting [3]), the stoichiometry N turned out to be 6.9.

As for “wild-type α-tropomyosin (Tpm1.1) with N-terminal Met–Ala–Ser extension R167H”, the other: N (relative number of disordered fluorophores) in assay [2] (setting [9]) was determined as 0.14 rel. units; in assay [2] (setting [10]), 0.085 rel. units; in assay [2] (setting [11]) it was 0.2 rel. units; in assay [2] (setting [12]), 0.24 rel. units; in assay [2] (setting [13]), 0.44 rel. units; in assay [2] (setting [14]), 0.35 rel. units.

With “γ-tropomyosin (Tpm3.12, human TPM3) E173A with N-terminal Met–Ala–Ser extension (natural protein)”, the stoichiometry N in assay [1] (setting [3]) was determined as 6.9.

For “wild-type β-tropomyosin (human TPM2) with N-terminal Met–Ala–Ser extension R91G”, the other: N (relative number of disordered fluorophores) turned out to be 0.26 rel. units in assay [2] (S1 (no nucleotide), Actin + Tpm + Tn, + Ca2+, parent: est. 0.27); 0.28 rel. units in assay [2] (S1 (no nucleotide), Actin + Tpm + Tn, - Ca2+, parent: est. 0.29); 0.28 rel. units in assay [2] (S1 + ADP, Actin + Tpm + Tn, + Ca2+, parent: est. 0.30); 0.27 rel. units in assay [2] (S1 + ADP, Actin + Tpm + Tn, - Ca2+, parent: est. 0.32); 0.61 rel. units in assay [2] (S1 + ATP, Actin + Tpm + Tn, + Ca2+, parent: est. 0.45); 0.38 rel. units in assay [2] (S1 + ATP, Actin + Tpm + Tn, - Ca2+, parent: est. 0.60). In addition, the other: N (relative number of disordered fluorophores) in assay [2] (S1 + Tpm, no troponin, no nucleotide, parent: est. 0.28) stood at 0.27 rel. units.

Consider “wild-type γ-tropomyosin (Tpm3.12, human TPM3) with N-terminal Met–Ala–Ser extension E173A”, for which the other: N (relative number of disordered fluorophores) in assay [2] (S1 (no nucleotide), Actin + Tpm + Tn, + Ca2+, parent: est. 0.17) came out at 0.1 rel. units; in assay [2] (setting [4]), 0.1 rel. units; in assay [2] (setting [5]), 0.13 rel. units; in assay [2] (setting [6]), 0.13 rel. units; in assay [2] (S1 + ATP, Actin + Tpm + Tn, + Ca2+, parent: est. 0.18) it was 0.28 rel. units; in assay [2] (setting [7]), 0.35 rel. units. In assay [2] (setting [8]), the other: N (relative number of disordered fluorophores) worked out at 0.15 rel. units.

Take “β-tropomyosin (human TPM2) E117K with N-terminal Met–Ala–Ser extension (natural protein)”: the stoichiometry N in assay [1] (setting [3]) came out at 6.9.

On to “wild-type α-tropomyosin (Tpm1.1) with N-terminal Met–Ala–Ser extension K168E”, for which the other: N (relative number of disordered fluorophores) is 0.17 rel. units in assay [2] (setting [9]); 0.06 rel. units in assay [2] (setting [10]); 0.11 rel. units in assay [2] (setting [11]); 0.23 rel. units in assay [2] (setting [12]); 0.34 rel. units in assay [2] (setting [13]); 0.36 rel. units in assay [2] (setting [14]).

In the case of “β-tropomyosin (human TPM2) Q147P with N-terminal Met–Ala–Ser extension (natural protein)”, the stoichiometry N in assay [1] (setting [3]) turned out to be 6.9.

In the case of “α-tropomyosin (rat TPM1) R167H with N-terminal Met–Ala–Ser extension (natural protein)”, in assay [1] (setting [3]), the stoichiometry N came out at 6.9.

On to “γ-tropomyosin (Tpm3.12, human TPM3) E150A with N-terminal Met–Ala–Ser extension (natural protein)”, for which the stoichiometry N in assay [1] (setting [3]) is 6.9.

Regarding “wild-type β-tropomyosin (human TPM2) with N-terminal Met–Ala–Ser extension (natural protein)”, the stoichiometry N in assay [1] (setting [3]) was determined as 6.9.

Regarding “wild-type γ-tropomyosin (Tpm3.12, human TPM3) with N-terminal Met–Ala–Ser extension (natural protein)”, the stoichiometry N in assay [1] (setting [3]) came out at 6.9.

“wild-type β-tropomyosin (human TPM2) with N-terminal Met–Ala–Ser extension E117K”: the other: N (relative number of disordered fluorophores) in assay [2] (S1 (no nucleotide), Actin + Tpm + Tn, + Ca2+, parent: est. 0.40) worked out at 0.38 rel. units; in assay [2] (S1 (no nucleotide), Actin + Tpm + Tn, - Ca2+, parent: est. 0.25) it was 0.28 rel. units; in assay [2] (S1 + ADP, Actin + Tpm + Tn, + Ca2+, parent: est. 0.39), 0.39 rel. units; in assay [2] (S1 + ADP, Actin + Tpm + Tn, - Ca2+, parent: est. 0.28) it was 0.33 rel. units; in assay [2] (S1 + ATP, Actin + Tpm + Tn, + Ca2+, parent: est. 0.68), 0.6 rel. units; in assay [2] (S1 + ATP, Actin + Tpm + Tn, - Ca2+, parent: est. 0.44) it was 0.53 rel. units. Besides, the other: N (relative number of disordered fluorophores) in assay [2] (S1 + Tpm, no troponin, no nucleotide, parent: est. 0.26) is 0.39 rel. units.

The term stoichiometry N denotes the number of molecules, sites or subunits per partner or assembly.
